Like-named read-outs stand apart in the source and are kept apart here. Bridge positions count the residues as written; N and C are the ends. Square brackets hold non-standard residues; d marks the D form. Ends that are not written are not given here. NMeL = CN[C@@H](CC(C)C)C(=O)O; Pen = CC(C)(S)[C@H](N)C(=O)O; Sar = CNCC(=O)O

For assay [1], the target named is T1, soluble human FcRn (human, UniProt P55899 24-297; P61769 21-119, biotinylated (Sulfo-NHS-LC-Biotin) in the ELISA; amine-coupled to CM5 chip in SPR).
T1 construct: also called shFcRn; biotinylated shFcRn
T1 sequence (P55899 24-297 limits assumed, chain 1 of 2): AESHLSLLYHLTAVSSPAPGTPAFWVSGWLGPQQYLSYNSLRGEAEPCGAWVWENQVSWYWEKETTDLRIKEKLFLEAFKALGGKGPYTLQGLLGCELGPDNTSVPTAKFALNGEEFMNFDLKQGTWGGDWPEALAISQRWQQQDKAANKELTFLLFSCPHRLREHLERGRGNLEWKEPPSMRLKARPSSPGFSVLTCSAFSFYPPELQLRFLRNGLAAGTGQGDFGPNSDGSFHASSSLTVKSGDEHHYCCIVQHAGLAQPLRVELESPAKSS
T1 sequence (P61769 21-119 limits assumed, chain 2 of 2): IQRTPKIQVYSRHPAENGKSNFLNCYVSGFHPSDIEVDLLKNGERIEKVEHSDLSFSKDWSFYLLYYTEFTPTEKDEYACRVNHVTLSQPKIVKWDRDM
The experiment in a line: ELISA, competitor human IgG.
Experimental: (§1) The wells were coated with 100 μl/well of 1 μg/ml biotinylated-shFcRn in Buffer A. The plate was sealed and incubated at 37° C. for 2 hours. Afterwards, the plate washed with 200 μl/well of Buffer B (Buffer B: 100 mM MES pH 6, 150 mM NaCl, 0.5% BSA IgG-free (Jackson ImmunoResearch, West Grove, Pa.), 0.05% Tween-20). […] To allow for mixing, the plate was rocked for 2 minutes, sealed and incubated at 37° C. for 2 hours. […] The plate was covered, incubated for 30 minutes at room temperature and washed 4 times with 200 μl/well of ice-cold buffer B. SureBlue TMB substrate solution (100 μl/well, KPL, Gaithersburg, Md.) was added and the plate was allowed to incubate at room temperature until color developed, which took 5 to 10 minutes. Once color developed, 100 μl/well of TMB stop solution (KPL, Gaithersburg, Md.) was added and the absorbance was measured at 450 nm. The data was plotted as absorbance vs. peptide concentration to derive the inhibitory concentration 50% (IC₅₀) values.

For assay [2], the target named is T1, soluble human FcRn. The experiment in a line: SPR, pH 6. In general terms: Surface plasmon resonance follows binding to a sensor surface in real time, without labels.
Experimental: (§2) The following steps were performed to cross-link soluble human or cynomolgus FcRn to the dextran surface of a CM5 sensor chip (Biacore AB, Uppsala, Sweden) by an amine coupling reaction involving 1-ethyl-(3-dimethylaminopropyl)-carbodiimide hydrochloride (EDC) (Biacore AB, Uppsala, Sweden) and N-hydroxysuccinimide (NHS) (Biacore AB, Uppsala, Sweden) as recommended by Biacore (BIAapplications Handbook, version AB, section 4.2, Biacore AB, Uppsala, Sweden). […] Residual sites on the FcRn flow cell were blocked with 1 M ethanolamine hydrochloride pH 8.5 (Biacore AB, Uppsala, Sweden). A control flow cell was blocked with ethanolamine for reference subtraction. For analysis of the monomeric peptides, FcRn was coated to a final density of 4000-5000 response units (RU). For analysis of the peptide dimers, FcRn was coated to a density of 2000-2500 RU. All SPR measurements were performed using a BIACORE 3000 Instrument (Biacore AB Uppsala, Sweden). For measurements done at either pH 6 or pH 7.4, experiments were performed in 50 mM phosphate, 100 mM sodium chloride, 0.01% surfactant P20 (Biacore AB, Uppsala, Sweden).
(§3) Ten, 2-fold dilutions of the peptide were injected over the FcRn-CM5 chip at a rate of 20 μl/min for 2 min. The peptide was dissociated from the chip for 2.5 minutes with buffer. […] Sensorgrams were generated and analyzed using BiaEval software version 3.1 (Biacore AB, Uppsala, Sweden). […]
For assay [3], the target named is T1, soluble human FcRn. Description: SPR, pH 7.4.
Experimental: as §2, §3
Assay [4] deals with T1, soluble human FcRn. The experiment in a line: SPR, pH 6. This is another data set of the same source.
Experimental: as §2, §3
Assay [5] concerns the target T1, soluble human FcRn. Description: ELISA, competitor human IgG. This is another data set of the same source. A general note: An ELISA detects its analyte on a solid surface through an enzyme-linked reagent.
Experimental: as §1
In assay [6] the target is T1, soluble human FcRn. The experiment in a line: ELISA, competitor human IgG. The source holds these as a separate data set.
Experimental: as §1
Assay [7] has as its target T1, soluble human FcRn. Description: SPR, pH 6. This is another data set of the same source.
Experimental: as §2
(§4) Ten, 2-fold dilutions of the peptide were injected over the FcRn-CM5 chip at a rate of 20 μl/min for 2 min. The peptide was dissociated from the chip for 2.5 minutes with buffer. Any remaining peptide was removed from the chip with a 30 second injection of HBS-P buffer (Biacore AB, Uppsala, Sweden) at a rate of 30 μl/min. Sensorgrams were generated and analyzed using BiaEval software version 3.1 (Biacore AB, Uppsala, Sweden). The equilibrium RU observed for each injection was plotted against concentration. The equilibrium KD values were derived by analysis of the plots using the steady state affinity model included in the BiaEval software.
Assay [8] deals with T1, soluble human FcRn. Description: SPR, pH 7.4. This is another data set of the same source.
Experimental: as §2, §3
In assay [9] the target is T1, soluble human FcRn. Description: SPR, pH 6. The source holds these as a separate data set.
Experimental: as §2, §4
Assay [10] deals with T1, soluble human FcRn. Description: ELISA, competitor human IgG. The source holds these as a separate data set.
Experimental: as §1
In assay [11] the target is T1, soluble human FcRn. The experiment in a line: SPR, pH 7.4. This is another data set of the same source.
Experimental: as §2, §3
The target in assay [12] is T1, soluble human FcRn. Description: SPR, pH 7.4. The source holds these as a separate data set.
Experimental: as §2, §3
The target in assay [13] is T1, soluble human FcRn. Description: SPR, pH 6. This is another data set of the same source.
Experimental: as §2, §4
For assay [14], the target named is T1, soluble human FcRn. The experiment in a line: SPR, pH 7.4. The source holds these as a separate data set.
Experimental: as §2, §3
Assay [15] addresses T1, soluble human FcRn. The experiment in a line: ELISA, competitor human IgG. The source holds these as a separate data set.
Experimental: as §1
Assay [16] has as its target T1, soluble human FcRn. Description: ELISA, competitor human IgG. This is another data set of the same source.
Experimental: as §1
The target of assay [17] is T1, soluble human FcRn. Description: ELISA, competitor human IgG. The source holds these as a separate data set.
Experimental: as §1
The target in assay [18] is T1, soluble human FcRn. Description: SPR, pH 7.4. The source holds these as a separate data set.
Experimental: as §2, §4
The target of assay [19] is T1, soluble human FcRn. The experiment in a line: ELISA, competitor human IgG. This is another data set of the same source.
Experimental: as §1
Assay [20] deals with T1, soluble human FcRn. Description: SPR, pH 7.4. This is another data set of the same source.
Experimental: as §2, §3
Assay [21] concerns the target T1, soluble human FcRn. Description: SPR, pH 6. The source holds these as a separate data set.
Experimental: as §2, §3
The target in assay [22] is T1, soluble human FcRn. The experiment in a line: SPR, pH 6. The source holds these as a separate data set.
Experimental: as §2, §4

RFXTGHFGPLYPC (Pen at 3; D-Pro at 9; disulfide; C-terminal amide) [Peptide No. 142]: in the assay with soluble human FcRn [1], the IC50 was found to be 1.5 µM. This molecule also had a Kd with soluble human FcRn [2] of 0.14 µM.

B1: Peptide No. 100 (peptide)
peptide: QRFDTGHFGGLYPKNGP
modifications: also: N-termini joined through a bis-thiol linker (bromoacetylated peptide), bridge as drawn, places not given here
B1: the Kd was 0.13 µM in the assay with soluble human FcRn [3] and 0.006 µM with soluble human FcRn [4]. The IC50 with soluble human FcRn [5] was found to be 0.76 µM.

B2: Peptide No. 122 (peptide)
peptide: QRFDTGHFGGLYPKNGP
modifications: also: bromoacetylated peptide joined to a SATP-derivatized peptide (dimer), further groups not given here
Turning to B2, the results for the Kd with soluble human FcRn [3] and in the assay with soluble human FcRn [4] were 0.12 µM and 0.006 µM, respectively. The same molecule came in with an IC50 with soluble human FcRn [5] of 0.97 µM.
In the assay with soluble human FcRn [6], QRFXTGHFGGLYPENGP (Dab at 4; side-chain lactam bridge Dab 4-Glu 14; C-terminal amide) [Peptide No. 72] came in with an IC50 of 81 µM. Also, the Kd with soluble human FcRn [7] came to 4.8 µM.
As to QRFXTGHFGGLYPDNGP (Dab at 4; side-chain lactam bridge Dab 4-Asp 14; C-terminal amide) [Peptide No. 81], the Kd in the assay with soluble human FcRn [8] was determined as 45 µM; with soluble human FcRn [7], 8.4 µM.

B3: Peptide No. 296 (peptide)
peptide: QRF[Pen]HGHFGGLYPCNGP-NH2
modifications: disulfide 4-14; N-terminus assumed
SMILES: CC(C)C[C@@H]1NC(=O)CNC(=O)CNC(=O)[C@H](Cc2ccccc2)NC(=O)[C@H](Cc2c[nH]cn2)NC(=O)CNC(=O)[C@H](Cc2c[nH]cn2)NC(=O)[C@@H](NC(=O)[C@H](Cc2ccccc2)NC(=O)[C@H](CCCNC(=N)N)NC(=O)[C@@H](N)CCC(N)=O)C(C)(C)SSC[C@@H](C(=O)N[C@@H](CC(N)=O)C(=O)NCC(=O)N2CCC[C@H]2C(N)=O)NC(=O)[C@@H]2CCCN2C(=O)[C@H](Cc2ccc(O)cc2)NC1=O
Regarding B3, the results for the Kd in the assay with soluble human FcRn [9] and in the assay with soluble human FcRn [11] were 0.15 µM and 0.96 µM, respectively. In the assay with soluble human FcRn [10], this molecule came in with an IC50 of 3 µM.
For the molecule QRFXTGHFGGHYPCNGP (Pen at 4; disulfide; C-terminal amide) [Peptide No. 84], the Kd with soluble human FcRn [12] was found to be 2.5 µM; in the assay with soluble human FcRn [13] it was 0.38 µM.
With QRFXTGHFGGLXPCNGP (Pen at 4; 4-fluoro-Phe at 12; disulfide; C-terminal amide) [Peptide No. 140], the affinity with soluble human FcRn [14], expressed as Kd, was 24 µM. The molecule further returned an IC50 with soluble human FcRn [15] of 26 µM.

B4: Peptide No. 236 (peptide)
peptide: RFVTGHFG[Sar][NMeL]YPA-NH2
modifications: N-terminus assumed
SMILES: CC(C)C[C@@H](C(=O)N[C@@H](Cc1ccc(O)cc1)C(=O)N1CCC[C@H]1C(=O)N[C@@H](C)C(N)=O)N(C)C(=O)CN(C)C(=O)CNC(=O)[C@H](Cc1ccccc1)NC(=O)[C@H](Cc1c[nH]cn1)NC(=O)CNC(=O)[C@@H](NC(=O)[C@@H](NC(=O)[C@H](Cc1ccccc1)NC(=O)[C@@H](N)CCCNC(=N)N)C(C)C)[C@@H](C)O
As for B4, the IC50 with soluble human FcRn [16] and in the assay with soluble human FcRn [17] was 37 µM throughout. The molecule also gave a Kd in the assay with soluble human FcRn [18] of 9 µM.

B5: Peptide No. 105 (peptide)
peptide: QRFDTGHFG[dA]LYPKNGP-NH2
modifications: lactam 4-14; N-terminus assumed
SMILES: CC(C)C[C@@H]1NC(=O)[C@@H](C)NC(=O)CNC(=O)[C@H](Cc2ccccc2)NC(=O)[C@H](Cc2c[nH]cn2)NC(=O)CNC(=O)[C@H]([C@@H](C)O)NC(=O)[C@@H](NC(=O)[C@H](Cc2ccccc2)NC(=O)[C@H](CCCNC(=N)N)NC(=O)[C@@H](N)CCC(N)=O)CC(=O)NCCCC[C@@H](C(=O)N[C@@H](CC(N)=O)C(=O)NCC(=O)N2CCC[C@H]2C(N)=O)NC(=O)[C@@H]2CCCN2C(=O)[C@H](Cc2ccc(O)cc2)NC1=O
B5: in the assay with soluble human FcRn [7], the affinity, expressed as Kd, was 2.1 µM.

B6: Peptide No. 80 (peptide)
peptide: QRFKTGHFGGLYPDNGP-NH2
modifications: lactam 4-14; N-terminus assumed
SMILES: CC(C)C[C@@H]1NC(=O)CNC(=O)CNC(=O)[C@H](Cc2ccccc2)NC(=O)[C@H](Cc2c[nH]cn2)NC(=O)CNC(=O)[C@H]([C@@H](C)O)NC(=O)[C@@H](NC(=O)[C@H](Cc2ccccc2)NC(=O)[C@H](CCCNC(=N)N)NC(=O)[C@@H](N)CCC(N)=O)CCCCNC(=O)C[C@@H](C(=O)N[C@@H](CC(N)=O)C(=O)NCC(=O)N2CCC[C@H]2C(N)=O)NC(=O)[C@@H]2CCCN2C(=O)[C@H](Cc2ccc(O)cc2)NC1=O
B6 displayed an IC50 with soluble human FcRn [6] of 60 µM. Also, in the assay with soluble human FcRn [8], the Kd is 52 µM.
Regarding QRFCTGHFG[dA]LYPCNGP-NH2 (disulfide 4-14 (inferred)) [Peptide No. 23], the IC50 with soluble human FcRn [19] is 57 µM. The Kd with soluble human FcRn [20] stood at 184 µM.
In turn, QRFCTGHF[dA][dA]LYPCNGP-NH2 (disulfide 4-14 (inferred)) [Peptide No. 24] displayed a Kd with soluble human FcRn [21] of 22 µM. This molecule also came in with an IC50 in the assay with soluble human FcRn [19] of 69 µM.

B7: Peptide No. 177 (peptide)
peptide: QRFVTGHFG[dP]WYPANGP-NH2
modifications: N-terminus assumed
SMILES: CC(C)[C@H](NC(=O)[C@H](Cc1ccccc1)NC(=O)[C@H](CCCNC(=N)N)NC(=O)[C@@H](N)CCC(N)=O)C(=O)N[C@H](C(=O)NCC(=O)N[C@@H](Cc1c[nH]cn1)C(=O)N[C@@H](Cc1ccccc1)C(=O)NCC(=O)N1CCC[C@@H]1C(=O)N[C@@H](Cc1c[nH]c2ccccc12)C(=O)N[C@@H](Cc1ccc(O)cc1)C(=O)N1CCC[C@H]1C(=O)N[C@@H](C)C(=O)N[C@@H](CC(N)=O)C(=O)NCC(=O)N1CCC[C@H]1C(N)=O)[C@@H](C)O
As for B7, the Kd in the assay with soluble human FcRn [22] came to 5.8 µM; with soluble human FcRn [18], 96 µM. Besides, the IC50 in the assay with soluble human FcRn [16] was found to be 52 µM.

One may read the IC50 as the concentration that inhibits the measured activity by half. Higher therefore signals a need for much substance. The term Kd denotes the free concentration of one partner at which half of the binding sites on the other are occupied at equilibrium, for simple one-to-one binding. Higher therefore signals lower affinity.

(Values after US20070254831A1 (published 2007).)
